This is an account of results in article PMC9297526.

In this series the target is human alpha-thrombin (human, UniProt P00734;P00734 328-363;364-622). Briefly: ITC. (Isothermal titration calorimetry measures the heat released or taken up as one component is titrated into another.)

In turn, GGTTGGTGTGGTTGG (structured_DNA) [TBA] gave a Ka of 8.46e+06 M⁻¹.
